Assay results published in the nanobody polyreactivity screen of Harvey et al. (2022).

Assay: yeast display, Sf9 membrane polyspecificity reagent, FACS + sequencing; frameworks hold sequencing errors
Outline: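 Galactose induction of a Saccharomyces cerevisiae BJ5465 synthetic nanobody display library ran 36–48 hours. The cells were then stained for 1 hour at 4 °C with 10% biotinylated, detergent-solubilized Sf9 membrane reagent, pulled down on streptavidin microbeads and FACS-sorted into low and high (top ~1%) gates on expression and reagent-binding fluorescence. Labels for polyreactivity follow the gate of origin.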

Sequence | polyreactivity (PSR sort gate)
QVHLVESGGGLVQAGGSLRLSCAASGFTFRYYAMGSYRQAPGKERELVASIRRIGGSTYYADSVKGRFTISRDNAKNTVYLQMNSLKPDDTAVYYCAASTNFYYNPEYDSWGQGTQVTVSS | low polyreactivity
QVHLVESGGGLVQAGGSLRLSCAASGFTFTRYAMGWYRQAPGKERELVAAISFSGGSTYYADSVKGRFTISRDNAKNTVYLQMNSLKPEDTAVYYCAGRWSVSYQYWGQGTQVTVSS | high polyreactivity
QVHLVESGGGLVQAGGSLRLSCAASGFTFYYYAMGWYRQAPGKERELVAAISDSGGITYYADSVKGRFTISRDNAKNTVYLQMNSLKPEDTAVYYCAADFATPGPEYDYWGQGTQVTVSS | low polyreactivity
QVHLVESGGGLVQAGGSLRLSCAASGFTLFGYAMGWYRQAPGKERELVAAISKDGGSTYYADSVKGRFTISRDNAKNTVYLQMNSLKPEDTAVYYCAARVKRPQTGYDRRYGYWGQGTQVTVSS | high polyreactivity
QVHLVESGGGLVQAGGSLRLSCAASGIIFGHYDMGWYRQAPGKERELVAAITFTGDSTYADSVKGRFTISRDNAMNTVYLQMNSLKPEDTAVYYCNASVKPSNVWSRGYDYWGQGTQVTVSS | low polyreactivity
QVHLVESGGGLVQAGGSLRLSCAASGIIFGVYAMGWYRQATGKESELVAAIDGNGSSTYYADSVKGRFTISRDNAKNTVFLQMNSLKPEDTAVYYCAAGYWSYLYYWYDFDYWGQGTQVTVSS | low polyreactivity
QVHLVESGGGLVQAGGSLRLSCAASGIIFRHKAMLWYRQAPGKERELVAAISSGGNTYYADSVKGRFTISRDNAKNTVYLLMNSLKPEDTAVYYFADDVQDRYHRAWYDSWGQGRQVTVSS | low polyreactivity
QVHLVESGGGLVQAGGSLRLSCAASGIIFYFYTMGWYRQAPGKERELVAAISSSGGRTFYADSVKGRFTISRDNAKNTDYLQMNSLKPEDTAVYYCAAAHTREYYWGQGTQVTVSS | high polyreactivity
QVHLVESGGGLVQAGGSLRLSCAASGIIFYLYAMGRYRQAPGKERELVAGITSGGDTKYADSVKGRFTISRDNAKNTVYLQMNSLKPEDTAVYYCATDSGSVWQRWGYANYDYWGQGTQVTVSS | low polyreactivity
QVHLVESGGGLVQAGGSLRLSCAASGIIFYRYAMGWYRQAPGKERELVAAISWRGTSTYYADSVKARFTISRDNANNTVYLQMNSLKPEDTEVYYCNAGVRRKYGEYYYWGQGTQVTVSS | high polyreactivity
QVHLVESGGGLVQAGGSLRLSCAASGITFGRNTMGWSRQAPGKERELVDAIDSCGNTYADSVKGRFTISRDNAKNTVYLKMNIVNPEDTAVYYCAVDGGEFSSYGEWGQGTQVTVAS | low polyreactivity
QVHLVESGGGLVQAGGSLRLSCAASGITFYYYAMGWYRQAPGKERELVAAIDTDGSTYYADSVKGRFTVSRDNAKNTVYLQMNILKPEDTAVYYCAAVIEYYPYSGYIYDYWGQGSQVTVSS | high polyreactivity
QVHLVESGGGLVQAGGSLRLSCAASGLIFLAYAMGWYRQAPGKERELVAAISTSGSTYYADSVKGRFTISRDNAKNTVYLQMNSLKPEDTAVYYCAAYDRWSVTYYYWGQGTQVTVSS | high polyreactivity
QVHLVESGGGLVQAGGSLRLSCAASGLIFYFYAKGWYRQAPGKERELVAGITNGGSTNYADSVKGRFTISRDNAKNTVYLQMNSLKPEDTAVYYCAAQYYTVRSTYDYWGQGTQVTVSS | high polyreactivity
QVHLVESGGGLVQAGGSLRLSCAASGLTFAWSAMGWYRPAPGKEREWVAAITSSGSRTYYADSVKGRFTISRDNAKNTVYLQMNSLKPEDTAVYYCAAPSRYRPTKGYPYYYWGQGTQVTVSS | high polyreactivity
QVHLVESGGGLVQAGGSLRLSCAASGLTFLYNTMGWYRQAPGKEREFVAAITISGGTTYYADSVKGRFTISRDNAKNTVYLQMNSLKREDTAVYYCAADYNSTERGTNMDYWGQGTQVTVSS | low polyreactivity
QVHLVESGGGLVQAGGSLRLSCAASGNIFGLYAMGWYRQAPGKERELVAAIRWIGGRTYYADSVKGRFTISRDNAKNTVYLQMNSLKPEDTAVYYCNAEYIVYYRGYDYWGHGTQVTVSS | high polyreactivity
QVHLVESGGGLVQAGGSLRLSCAASGNTFYKYTMGWYRQAPGKERELVAVISSSSGSTYYADSVKGRFTISRDNAMNTVYLQMNSLKPEDTAVDYCNKRGWWDLRHDYWGQGTQVTVSS | low polyreactivity
QVHLVESGGGLVQAGGSLRLSCAASGRIFGDNAMGWYRQAPGKERELVAAITVNAGSTHYADSVKGRFTISRDNAKNTDYLQMNSLKPEDTAVYYCAKQTAPVTGVGPYYYWGQGTQVTVSS | low polyreactivity
QVHLVESGGGLVQAGGSLRLSCAASGRIFGYNAMGWYRQAPGKERELVAAITGSRGSTYYADSVKGRFTFSRDTAKNTVYLQLNSLKPEDTAVYYCNAPGNHWGDWGHGTQVTVSS | low polyreactivity
QVHLVESGGGLVQAGGSLRLSCAASGRIFGYYAMGWYRQAPGKVRELVAAIRRSGGSTYADSVKGRFTISRDNAKNTVYLQMNSLKPEDTAVYDCAAGHYWTSPYRVLSYSYWGQGTQVTVSS | high polyreactivity

Sequence | polyreactivity (PSR sort gate)
QVHLVESGGGLVQAGGSLRLSCAASGRIFSLNAMGCDRQAPGKERELVAAISTGGASTYYADSVKGRFTISRDNAKNTVYLQMNSLKPEDTAVYSCAADLGYEYDYWGQGTQVTVSS | high polyreactivity
QVHLVESGGGLVQAGGSLRLSCAASGRIFSRNAMGWYRQAPGKERELVASITRGGSTYYADSVKGRFTISRDNAKITVYLQMNSLKPEDTAVYYCAAVFYDRGQRYNYWGQGTQVTVSS | high polyreactivity
QVHLVESGGGLVQAGGSLRLSCAASGRIFTYYAMGWYRQAPGKERELFAGISRSGTSSYYADSVKGSFTISRDNAKNTVYLQMNSLKPEDTAVYYCAADVFRDDVWLDYWGQGTQVTVSS | low polyreactivity
QVHLVESGGGLVQAGGSLRLSCAASGRIFYANARGWYRQAPGKERELVAAISQSGGSTFYADSVKGRFTISRDYAKNTVYLQMNSLKPEDTAVYYCATDYYGPVYDLDYDYWGQGTQVTVSS | low polyreactivity
QVHLVESGGGLVQAGGSLRLSCAASGRIFYANDMGWYRQAPGKERELVAAITNTVSTTYADSVKGRFTISRDNAKNTVYLQMNSLKTEDTAVYYCNADDPYVPKADMGYWGQGTQVTVSS | low polyreactivity
QVHLVESGGGLVQAGGSLRLSCAASGRIFYAYAMGWYRPAPVKERELVAAITWSGGSTYYADSVKGRFTISRDNAKNTVYLQMNSLKPEDTAVYYCAADLRVKYVHTYSYVWYRYDYWGQGTQVTVSS | high polyreactivity
QVHLVESGGGLVQAGGSLRLSCAASGRIIGKYAMGWYRQPPGKERELVAAITWSGGNTYYADSVKGRFTISRDNAKNTVYLQMNSLKPEDTAVYYCAASVPGKSHKDGYWGQGSQVTVSS | high polyreactivity
QVHLVESGGGLVQAGGSLRLSCAASGRIINYYDMGWYRQAPGKERELVAAISRSGGRTYYADSVKGRFTISRDNAKNTVYLQMNSLKPEDNAVYYCAASDYQRYQPTPQYTYYYWGQGTQVTVSS | high polyreactivity
QVHLVESGGGLVQAGGSLRLSCAASGRILGDYAMGWYRQAPGKEREFVAAIDYNGGSTNYADSVKGRFTISRDNAKNTVYLQMNSLKPEDTAVYYCAAPGFPSRNGFGYWGQGTQVTVSS | low polyreactivity
QVHLVESGGGLVQAGGSLRLSCAASGRILSLYAMGWYRQAPGKERELVASINWSDGSTYYADSVKGRFTISRDNAKNTVYLQMNSLKPEDTAVYYCNVDVSSYVAGYDYWGQGTQVTVSS | low polyreactivity
QVHLVESGGGLVQAGGSLRLSCAASGRNFGYYARGWYRQAPVKERELVAAIDSSGGDTYYADSVKGRFTISRDNAKNSVYVQMNSLKPEDTAVFYCAAEYVAQAGYGVDYWGQGTEVTVSS | low polyreactivity
QVHLVESGGGLVQAGGSLRLSCAASGRTFDLNAMGWYRQAPGKERELVAGISSSGGRTYYADSVKGRFTISRDNAKNTVYLQMNSLIPEDTAVYYCAKVYPSYVLRKYDYWGQGTQVTVSS | high polyreactivity
QVHLVESGGGLVQAGGSLRLSCAASGRTFFQYAMGWYTQAPGKERELVAAIRWSDSTYYADSVKGRFTISRDNAKNTVYLQMNSLKPEDTAVYYCAKTYRYYRTMDYWGQGTQVTVSS | low polyreactivity
QVHLVESGGGLVQAGGSLRLSCAASGRTFGWNVMGWYRPAPGKERELVAAISGSGGSTYYADSVKGRFTISRDNAKNPVYLQMNSLKPEDTAVYYCAALYGPGREYDYWGQVTQVTVSS | low polyreactivity
QVHLVESGGGLVQAGGSLRLSCAASGRTFIFYAMRWYRQAPGKERELVATISRSAGSTYYADSVKGRFTISRDNAKNTVYLQMNSLKPEDTAVYYCATQSRHYRGGKYYYWGQGTQVSVSS | high polyreactivity
QVHLVESGGGLVQAGGSLRLSCAASGRTFIGNAMGWYRQATGKERELVAGITWSGGRSYYADSVKGRFTISRDNAKNTVYLQMNSQKPEDTAVYYCGRAGQSSRMNYWGQGTQVTVSS | high polyreactivity
QVHLVESGGGLVQAGGSLRLSCAASGRTFSAYAMGWYRQAPGKEREDVAAISRSGGSTYYADSVKGRFPISRDNAKNTVYLQMNILTPEDTAVSDCAVRWPSARIPVKLEDWGQGTQVTVSS | high polyreactivity
QVHLVESGGGLVQAGGSLRLSCAASGRTFVQYAMGWSRQAPGTERELVAVISNGGTTYYADSVKGRFTISRDNAKNTVYLQMNSLKPEDTAVYYCAAKIITRRGGRYDYWGQGTQVTVSS | high polyreactivity
QVHLVESGGGLVQAGGSLRLSCAASGRTFWNYAMGWYRQAPGKEREFVAVIRFSDGSTYYADSVKGRFTISRDNAKNTVYLQMNSLKPDDTAVYYCAAKGPRRWGSGFDYWGQGNQVTVSS | low polyreactivity
QVHLVESGGGLVQAGGSLRLSCAASGRTFYANAMGWYIQAPGKERELVAAISTGGDGTYYADSVKGRFTISRDNAKNTVYLQMNSLKPEDTAVYYCAVRHRASGILYDYWGQGTQVTVSS | low polyreactivity
